We go through one molecule from article PMC10184537 (ACS Nano, 2023).

The target of this experiment is murine urokinase-type plasminogen activator (murine, UniProt P06869). The experiment in a line: […].
Chain of murine urokinase-type plasminogen activator (P06869 21-433): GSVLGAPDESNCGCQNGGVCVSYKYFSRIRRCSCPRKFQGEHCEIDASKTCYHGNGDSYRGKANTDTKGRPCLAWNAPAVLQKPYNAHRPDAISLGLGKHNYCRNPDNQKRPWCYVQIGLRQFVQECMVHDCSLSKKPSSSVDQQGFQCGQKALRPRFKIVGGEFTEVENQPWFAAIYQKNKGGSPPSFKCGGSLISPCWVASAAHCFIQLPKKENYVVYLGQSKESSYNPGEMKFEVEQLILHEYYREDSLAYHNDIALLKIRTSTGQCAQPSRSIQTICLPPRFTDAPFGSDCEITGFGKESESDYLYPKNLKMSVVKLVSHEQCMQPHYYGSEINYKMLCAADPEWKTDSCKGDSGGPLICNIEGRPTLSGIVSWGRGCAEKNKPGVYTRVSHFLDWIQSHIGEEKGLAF

B1: nb22 nanobody (VHH)
VHH: QVQLQESGGGLVQAGGSLRLSCAASGRTFSSYVMGWFRQAPGKEREFVAAISWSGGSTNYADSVKGRFTISRDNAKNTVYLQMNSLKPEDTAVYYCAADLASSRDVSSWYWGQGTQVTVSS
Regarding B1, the binding result is “binds”.
